The results in this text go back to article PMC12000511, “Molecular basis for the assembly of the Vps5-Vps17 SNX-BAR proteins with Retromer” (Nature Communications, 2025).

For data set [1], the target named is ctVps29 (Chaetomium thermophilum). Briefly: ITC; Microcal PEAQ ITC, 25 °C, 50 mM Tris-HCl pH 7.5, 200 mM NaCl, 2 mM β-ME; Vps5/Vps17/SNX1 construct or peptide (200-400 µM) titrated into 10-15 µM Retromer or Vps29; single-site model, N set to 1.0 if close to 1.
In data set [2] the target is ctRetromer (Chaetomium thermophilum Retromer trimer of ctVps35, ctVps26 and ctVps29) (Chaetomium thermophilum). Described as above.
The target in data set [3] is T1, hRetromer (Homo sapiens, UniProt Q96QK1+Q9UBQ0).
T1 construct: GST (N); made in house; host or cells: E. coli BL21(DE3) (general statement for bacterial constructs)
Briefly: GST pull-down with hRetromer. The class given is binding. Conditions: 1 nmol GST-tagged protein, 2 nmol hRetromer, overnight 4 °C, SDS-PAGE/blot. As to the method:
GST pull-down assay of scVps5 and hRetromer was performed similar to the one described above with some modifications. The purified hRetromer at 2 nmol was mixed with 1 nmol GST-tagged hFam21R19–R21, scVps5_70–128 LF native, scVps5_70–128 LF mutant or GST alone separately overnight at 4 °C before added to fresh glutathione Sepharose pre-equilibrated with buffer as mentioned above. In all cases, beads were washed five times with the equilibration buffer and bounds proteins were analysed by SDS-PAGE gels.

In data set [4] the target is ctRetromer (Chaetomium thermophilum Retromer trimer of ctVps35, ctVps26 and ctVps29) (Chaetomium thermophilum). Briefly: ITC; as a1, with 100 µM of the cyclic peptide RT-D3 in the cell: 200 µM ctVps5 or GST-ctVps5(51–100) titrated into 10 µM ctRetromer or ctVps29.
For data set [5] the target is unchanged. As to the kind of experiment: ITC; as a1, with 100 µM of the control cyclic peptide RT-D1 L7E in the cell: 200 µM ctVps5 titrated into 10 µM ctRetromer.
Data set [6] addresses ctVps5 (full length, homodimer) (Chaetomium thermophilum). Briefly: mass photometry; Refeyn OneMP, 50-100 nM protein, 50 mM Tris-HCl pH 7.5, 200 mM NaCl, 2 mM β-ME; ctRetromer and ctVps5 combined in a 1:1 ratio.
The subject of data set [7] is Vps10. As to the kind of experiment: Vps10-mNeonGreen localisation/recycling in vps5Δ yeast (Pearson colocalization with vacuole). The class given is cell-based, Saccharomyces cerevisiae. Particulars: vps5Δ cells complemented with Vps5 variant on plasmid; confocal microscopy. From the text:
Fig. 7 The interaction of Retromer with the Vps5 N-terminal domain is required for Vps10 recycling. A AlphaFold2 predicted structure of the scVps35–scVps29–scVps5 complex highlighting residues targeted for mutagenesis. B Yeast cells (SEY6210) carrying a Vps5 deletion, and expressing a copy of Vam10 (the VAM10 gene is embedded in VPS5 and deleted with it) and Vps10-mNeonGreen were complemented with centromeric plasmids expressing variants of Vps5. These cells were logarithmically grown in SD-URA medium, stained with FM4−64 and analysed by confocal microscopy. Single slices of the images are shown. Scale bar: 1 μm. Arrowheads indicate regions of Vps10 vacuolar localisation, and open arrowheads indicate Vps10 localised to pre-vacuolar comparmtnets. C Graph representation showing the Pearson Colocalizastion Coefficient between the vacuolar and Vps10 signals of Vps5 deleted yeast cells shown in B quantified using JACoP (Just Another Co-localization Plugin) implemented in ImageJ. Error bars are the standard deviations calculated from ≥ 70 measurements from 2 experiments.
The Saccharomyces cerevisiae strains are derived from SEY6210 (Supplementary Table 3). Vps5 and Pep4 deletions, Vps5 N-terminal point mutations and endogenous tagging of Vps10 was conducted based on the CRISPR-Cas9 system. The vector co-expressing single guide RNA and Cas9 enzyme was co-transformed into yeast cells with double-stranded oligonucleotides as the templates for homologous recombination (Supplementary Table 4). For Vps5 deletion, the template contained 40-bp homology upstream and downstream of its coding sequence. Vps10^mNeonGreen was created by a template comprising its C-terminal region with mutated PAM sequence and fused mNeonGreen tag followed by 40-bp homology region after the stop codon. Vam10 was cloned into pRS305 vector using Not1/Sma1 restriction sites to generate an integrative plasmid that was linearized, transformed and integrated ectopically into the auxotrophic selectable marker LEU2 gene locus. […]

Data set [8] concerns scRetromer and scSNX-BAR on supported membrane tubes. As to the kind of experiment: Supported membrane tube (SMT) assay. The class given is biochemical, Saccharomyces cerevisiae.
Method: Supported membrane tubes were generated as described[46]. Briefly, glass coverslips were first washed with 3 M NaOH for 5 min and rinsed with water before a 60 min treatment with piranha solution (95% H2SO4/30% H2O2 3:2 v/v). Coverslips were rinsed with water and dried on a heat block at 90 °C. Coverslips were then silanized with 3-glycidyloxypropyltrimethoxysilane (Catalogue no. 440167, Sigma) for 5 h under vacuum, rinsed with acetone and dried. Polyethylene glycol coating was done by placing the coverslips in a beaker containing PEG400 (Sigma) at 90 °C for 60 h. Coverslips were washed with distilled water and stored for up to 2 months at room temperature in a closed container.
To generate supported membrane tubes, lipids were mixed from 10 mg/mL stocks in a glass vial and diluted to a final concentration of 1 mg/mL in chloroform. The same lipid mix was used throughout this study (5% PI(3)P, 15% DOPS, 0.1% fluorescent lipid tracer (Cy5.5 PE or Texas red DHPE), 79.5% egg-PC). Lipids were then spotted (typically 1 µL, corresponding to about 1 nmol) on the coverslips and dried for 30 min under vacuum. The coverslip was mounted on an IBIDI 6-channel µ-slide (µ-Slide VI 0.4. IBIDI, catalog no: 80606). Lipids were hydrated for 15 min with buffer (PBS) and SMTs were generated by injecting PBS into the chamber using an Aladdin Single-Syringe Pump (World Precision Instruments, model n°. AL-1000) at a flow rate of 1,5 mL/min for 5 min. SMTs were left to stabilize without flow for 5 min before the start of the experiment. Protein stocks (typically 1–2 µM) were first diluted in PBS and then injected in the chamber at a flow rate of 80 µL per minute. Cyclic peptides were added to the proteins from a 30 mM stock in DMSO to a final concentration of 300 µM. the protein/peptide mix was incubated for 1 min at room temp (23 °C) before being added to the SMTubes.
For data set [9], the system named is yeast vps5Δ cells (SEY6210). Briefly: Vacuole fragmentation (FM4−64) in vps5Δ yeast. The class given is cell-based, Saccharomyces cerevisiae. Conditions: vps5Δ cells complemented with Vps5 variant on plasmid. On the procedure:
The Saccharomyces cerevisiae strains are derived from SEY6210 (Supplementary Table 3). Vps5 and Pep4 deletions, Vps5 N-terminal point mutations and endogenous tagging of Vps10 was conducted based on the CRISPR-Cas9 system. The vector co-expressing single guide RNA and Cas9 enzyme was co-transformed into yeast cells with double-stranded oligonucleotides as the templates for homologous recombination (Supplementary Table 4). For Vps5 deletion, the template contained 40-bp homology upstream and downstream of its coding sequence. Vps10^mNeonGreen was created by a template comprising its C-terminal region with mutated PAM sequence and fused mNeonGreen tag followed by 40-bp homology region after the stop codon. Vam10 was cloned into pRS305 vector using Not1/Sma1 restriction sites to generate an integrative plasmid that was linearized, transformed and integrated ectopically into the auxotrophic selectable marker LEU2 gene locus.
The VPS5 gene with its native promoter, C-terminally fused HA-tag and ADH1 terminator was cloned into pRS314 centromeric plasmid. A point mutation was introduced in the start codon of VAM10 (M-to-I) by site-directed mutagenesis, because VAM10 overlaps with VPS5[71]. […] For the N-terminal deletion mutant of Vps5 (Δ1-280), residues 838–2025 of VPS5 were amplified and subcloned into the pRS314-VPS5-HA plasmid described above using Nco1/Sma1 restriction sites. The plasmid bearing the PL motif mutation (L196R) was generated using site-directed mutagenesis in the pRS314-VPS5-HA plasmid. To abolish all three putative binding sites to Retromer, a synthetic gene fragment of VPS5 (ordered from GenScript) containing the following mutations—start codon of VAM10 sequence(M-to-I), L196R, L121G, F122G and F161E—was subcloned into the pRS314-VPS5-HA plasmid using Nco1/Stu1 restriction sites.
Vacuoles were stained with FM4−64. Cells were grown in SD^-URA medium to an OD600 between 0.6 and 1.0. The culture was diluted to an OD600 of 0.4, and FM4−64 was added to a final concentration of 10 µM from a 10 mM stock in DMSO. […]

Where no end group is shown, it is not given here.

Consider “GST-ctVps5_(51–100) (domain or fragment)”, for which the results for the dissociation constant (Kd) in data set [1] and in data set [2] were 1600 nM and 660 nM, respectively. The dH was -2.16 kcal/mol in data set [1] and -4.1 kcal/mol in data set [2].
As for “GST-tagged scVps5_70–128: GST-tagged S. cerevisiae Vps5 residues 70–128 containing the LF motif (GLSVAGNPQLEEHDNSKADDLINSLAPEQDPIADLKNSTTQFIATRESGGALFTGNANS; not fully specified (N-terminus); also: GST fusion, end not given here)”, the “binding to hRetromer in GST pull-down” value in data set [3] is recorded as “only binds weakly to VPS35”; in [3] (listed as GST- scVps570-128), “binds weakly to hRetromer”.
In data set [4], “ctVps5 (full length, homodimer) (natural protein)” gave a Kd with 100 µM RT-D3 (competitor) present of 9410 nM and a dH of -10.5 kcal/mol. Besides, in data set [5], the Kd with 100 µM RT-D1 L7E (control peptide) present was determined as 750 nM and the dH was -7.53 kcal/mol. The stoichiometry N in data set [6] amounted to 2. For the same molecule, in data set [2], the Kd was 720 nM and the dH is -8.5 kcal/mol.

B1: quadruple mutant Vps5 (L121G/F122G/F161E/L196R): scVps5 mutant altering PL, [K/R]Φ and LFa sites (protein, UniProt Q92331 1-675, looked up, variant L121G F122G F161E L196R)
Vacuolar protein …: MDYEDNLEAPVWDELNHEGDKTQSLVSNSIESIGQISTNEERKDNELLETTASFADKIDLDSAPEWKDPGLSVAGNPQLEEHDNSKADDLINSLAPEQDPIADLKNSTTQFIATRESGGAGGTGNANSPLVFDDTIYDANTSPNTSKSISGRRSGKPRILEDSARAQRNSKRNHSLKAKRTTASDDTIKTPFTDPRKKAEKENEFVEEPLDDRNERRENNEGKFTASVEKNILEQVDRPLYNLPQTGANISSPAEVEENSEKFGKTKIGSKVPPTEKAVAFKVEVKDPVKVGELTSIHVEYTVISESSLLELKYAQVSRRYRDFRWLYRQLQNNHWGKVIPPPPEKQSVGSFKENFIENRRFQMESMLKKICQDPVLQKDKDFLLFLTSDDFSSESKKRAFLTGSGAINDSNDLSEVRISEIQLLGAEDAAEVLKNGGIDAESHKGFMSISFSSLPKYNEADEFFIEKKQKIDELEDNLKKLSKSLEMVDTSRNTLAASTEEFSSMVETLASLNVSEPNSELLNNFADVHKSIKSSLERSSLQETLTMGVMLDDYIRSLASVKAIFNQRSKLGYFLVVIENDMNKKHSQLGKLGQNIHSEKFREMRKEFQTLERRYNLTKKQWQAVGDKIKDEFQGFSTDKIREFRNGMEISLEAAIESQKECIELWETFYQTNL
As for B1, the “Vps10 recycling/localisation” value in data set [7] was “severe Vps10 recycling sorting defect”. In addition, the “Vps5–Vps17 heterodimer formation of mutant” value in data set [8] (quadruple mutant Vps5 with scVps17) is given as “do not impair heterodimer formation”. Moreover, the “coat formation / recruitment on SMTs” value in [8] (scSNX-BAR and scRetromer on SMTs containing 5% PtdIns(3)P) is recorded as “showed a defect of coat formation”. The “vacuole fragmentation” value in data set [9] is on record as “strong vacuole fragmentation”.

B2: Vps5 (L196R): single amino acid substitution in the core PL motif of scVps5 (protein, UniProt Q92331 1-675, looked up, variant L196R)
Vacuolar protein …: MDYEDNLEAPVWDELNHEGDKTQSLVSNSIESIGQISTNEERKDNELLETTASFADKIDLDSAPEWKDPGLSVAGNPQLEEHDNSKADDLINSLAPEQDPIADLKNSTTQFIATRESGGALFTGNANSPLVFDDTIYDANTSPNTSKSISGRRSGKPRILFDSARAQRNSKRNHSLKAKRTTASDDTIKTPFTDPRKKAEKENEFVEEPLDDRNERRENNEGKFTASVEKNILEQVDRPLYNLPQTGANISSPAEVEENSEKFGKTKIGSKVPPTEKAVAFKVEVKDPVKVGELTSIHVEYTVISESSLLELKYAQVSRRYRDFRWLYRQLQNNHWGKVIPPPPEKQSVGSFKENFIENRRFQMESMLKKICQDPVLQKDKDFLLFLTSDDFSSESKKRAFLTGSGAINDSNDLSEVRISEIQLLGAEDAAEVLKNGGIDAESHKGFMSISFSSLPKYNEADEFFIEKKQKIDELEDNLKKLSKSLEMVDTSRNTLAASTEEFSSMVETLASLNVSEPNSELLNNFADVHKSIKSSLERSSLQETLTMGVMLDDYIRSLASVKAIFNQRSKLGYFLVVIENDMNKKHSQLGKLGQNIHSEKFREMRKEFQTLERRYNLTKKQWQAVGDKIKDEFQGFSTDKIREFRNGMEISLEAAIESQKECIELWETFYQTNL
Regarding B2, the “Vps10 recycling/localisation” value in data set [7] is listed as “partial defect in Vps10 recycling”. Further, in data set [9], the “vacuole fragmentation” value is listed as “partial rescue of vacuole fragmentation”.

B3: wildtype Vps5: S. cerevisiae wildtype Vps5 re-introduced into knockout cells (protein, UniProt Q92331 1-675, looked up)
Vacuolar protein …: MDYEDNLEAPVWDELNHEGDKTQSLVSNSIESIGQISTNEERKDNELLETTASFADKIDLDSAPEWKDPGLSVAGNPQLEEHDNSKADDLINSLAPEQDPIADLKNSTTQFIATRESGGALFTGNANSPLVFDDTIYDANTSPNTSKSISGRRSGKPRILFDSARAQRNSKRNHSLKAKRTTASDDTIKTPFTDPLKKAEKENEFVEEPLDDRNERRENNEGKFTASVEKNILEQVDRPLYNLPQTGANISSPAEVEENSEKFGKTKIGSKVPPTEKAVAFKVEVKDPVKVGELTSIHVEYTVISESSLLELKYAQVSRRYRDFRWLYRQLQNNHWGKVIPPPPEKQSVGSFKENFIENRRFQMESMLKKICQDPVLQKDKDFLLFLTSDDFSSESKKRAFLTGSGAINDSNDLSEVRISEIQLLGAEDAAEVLKNGGIDAESHKGFMSISFSSLPKYNEADEFFIEKKQKIDELEDNLKKLSKSLEMVDTSRNTLAASTEEFSSMVETLASLNVSEPNSELLNNFADVHKSIKSSLERSSLQETLTMGVMLDDYIRSLASVKAIFNQRSKLGYFLVVIENDMNKKHSQLGKLGQNIHSEKFREMRKEFQTLERRYNLTKKQWQAVGDKIKDEFQGFSTDKIREFRNGMEISLEAAIESQKECIELWETFYQTNL
With B3, the “Vps10 recycling/localisation” value in data set [7] is on record as “localization of Vps10-mNeonGreen on punctate structures”. Further, in data set [9], the “vacuole fragmentation” value is reported as “clear recovery of large vacuoles”.
